Earlier results, collected in article PMC11402941.

What was measured:
PSGL-1 (Homo sapiens) = PSGL-1 (Homo sapiens) (UniProt Q14242)
VSIG3 (Homo sapiens) = VSIG3 (Homo sapiens) (UniProt Q5DX21)
UniProt Q5DX21, sequence (Q5DX21 23-241): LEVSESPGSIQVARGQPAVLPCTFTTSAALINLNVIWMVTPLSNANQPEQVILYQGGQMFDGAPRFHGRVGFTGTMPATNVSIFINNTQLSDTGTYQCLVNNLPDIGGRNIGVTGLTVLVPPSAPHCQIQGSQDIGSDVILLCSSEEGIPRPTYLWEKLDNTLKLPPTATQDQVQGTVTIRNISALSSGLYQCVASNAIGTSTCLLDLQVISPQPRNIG

UniProt Q14242, sequence (Q14242 42-320): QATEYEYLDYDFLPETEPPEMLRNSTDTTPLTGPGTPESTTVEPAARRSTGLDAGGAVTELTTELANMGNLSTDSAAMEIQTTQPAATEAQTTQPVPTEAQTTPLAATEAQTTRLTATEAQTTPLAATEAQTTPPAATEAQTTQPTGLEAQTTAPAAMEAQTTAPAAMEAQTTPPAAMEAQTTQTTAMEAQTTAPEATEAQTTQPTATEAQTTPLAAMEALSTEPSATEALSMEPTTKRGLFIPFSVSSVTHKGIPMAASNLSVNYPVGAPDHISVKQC

Kd (PSGL-1 (Homo sapiens)): 4 nM
Kd (VSIG3 (Homo sapiens)): 80 nM
Substance: VISTA (from UniProt Q9H7M9)
